Results taken from US20230212305A1 (published 2023).
Each block holds one binder with its values, some of them ahead of it.

Experiments:
[1] = target: T1, human ABCG2 (UniProt Q9UNQ0 1-655); assay: FACS binding to 293T cells
T1 chain: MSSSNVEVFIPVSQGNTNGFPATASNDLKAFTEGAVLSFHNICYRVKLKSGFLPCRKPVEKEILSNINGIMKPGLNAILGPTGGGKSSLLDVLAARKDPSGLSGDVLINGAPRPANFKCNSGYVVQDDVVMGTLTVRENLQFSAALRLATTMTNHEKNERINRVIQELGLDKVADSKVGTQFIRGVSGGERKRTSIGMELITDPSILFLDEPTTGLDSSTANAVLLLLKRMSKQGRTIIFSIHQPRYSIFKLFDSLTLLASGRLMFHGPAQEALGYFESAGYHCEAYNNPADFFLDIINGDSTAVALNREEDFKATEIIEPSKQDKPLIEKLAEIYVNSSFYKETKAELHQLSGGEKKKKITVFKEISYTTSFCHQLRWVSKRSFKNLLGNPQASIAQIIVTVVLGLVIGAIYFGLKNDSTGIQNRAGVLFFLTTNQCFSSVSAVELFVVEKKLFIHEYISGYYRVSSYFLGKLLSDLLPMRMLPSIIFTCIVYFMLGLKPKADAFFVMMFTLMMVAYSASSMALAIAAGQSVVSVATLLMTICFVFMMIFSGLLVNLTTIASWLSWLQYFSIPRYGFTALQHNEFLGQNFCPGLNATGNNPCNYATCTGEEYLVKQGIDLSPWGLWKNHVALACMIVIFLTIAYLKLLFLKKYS

[2] = target: T2, cynomolgus ABCG2 (Macaca fascicularis) (UniProt Q5MB13 1-654); assay: FACS binding to 293T cells
T2 chain: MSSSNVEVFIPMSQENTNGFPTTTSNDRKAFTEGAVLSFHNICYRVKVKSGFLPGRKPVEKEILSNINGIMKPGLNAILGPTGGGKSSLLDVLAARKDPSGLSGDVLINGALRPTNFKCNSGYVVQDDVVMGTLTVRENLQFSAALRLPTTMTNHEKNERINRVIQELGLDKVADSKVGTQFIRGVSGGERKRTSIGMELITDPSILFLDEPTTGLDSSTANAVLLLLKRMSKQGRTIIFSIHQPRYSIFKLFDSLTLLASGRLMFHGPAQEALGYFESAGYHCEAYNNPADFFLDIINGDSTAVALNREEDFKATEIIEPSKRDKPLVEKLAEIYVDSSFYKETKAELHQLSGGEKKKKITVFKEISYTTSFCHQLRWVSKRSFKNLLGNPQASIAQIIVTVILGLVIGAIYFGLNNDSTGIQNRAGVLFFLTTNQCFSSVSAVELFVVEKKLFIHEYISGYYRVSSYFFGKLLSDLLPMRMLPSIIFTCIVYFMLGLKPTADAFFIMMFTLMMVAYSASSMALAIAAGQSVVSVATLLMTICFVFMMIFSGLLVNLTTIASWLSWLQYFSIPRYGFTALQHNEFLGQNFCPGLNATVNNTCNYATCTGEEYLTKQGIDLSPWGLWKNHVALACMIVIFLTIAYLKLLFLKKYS

[3] = target: T1, human ABCG2; assay: cell binding
[4] = target: T2, cynomolgus ABCG2 (Macaca fascicularis); assay: cell binding
[5] = target: G2_377; assay: FACS binding to 293T cells
[6] = target: G2_709; assay: FACS binding to 293T cells
[7] = target: G2_336; assay: FACS binding to 293T cells
[8] = target: G2_656; assay: FACS binding to 293T cells
[9] = target: G2_418; assay: FACS binding to 293T cells
[10] = target: G2_639; assay: FACS binding to 293T cells
[11] = target: G2_745; assay: FACS binding to 293T cells
[12] = target: G2_620; assay: FACS binding, 293T-G2OX cells
[13] = target: h5D3; assay: FACS binding, 293T-G2OX cells
[14] = target: h5D3; assay: FACS cell binding
[15] = target: KNJY-G2-333H; assay: FACS cell binding
[16] = target: h5D3; assay: FACS cell binding; remark: listed apart in the source

- Kd [1]: 5.9 nM
- Kd [2]: 17.1 nM
- EC50 [3]: 27 nM
- EC50 [4]: 65 nM
B1: G2.643 mouse (antibody, V domains shown)
VH: VNLVESGPELVKPGTSVKISCKASGYRFTSYYVHWVKQRPGQGLEWIGWIFPGSDNTKYNEKFKGKATLTADTSSSTAYMQLSSLTSEDSAVYFCASIYYGYDGTLYFDYWGQGTSVTVSS
VL: DIVMTQSHTFMSTSVGDRVSVTCKASQNVGNNVAWYQQKPGQSPNALIYSASYRYSGVPDRFTGSGSGTDFTLTISNVQSEDLAEYFCQQYDRYPLTFGGGTKLEIK

- Kd [5]: 16.7 nM
- Kd [6]: 20.6 nM
- Kd [7]: 28.2 nM
- Kd [8]: 36.8 nM
- Kd [9]: 59 nM
- Kd [10]: 46.8 nM
- Kd [11]: 23.3 nM
- Kd [12]: 15.8 nM
- Kd [13]: 2.99 nM
B2: hG2 (other)
chain: MSSSNVEVFIPVSQGNTNGFPATASNDLKAFTEGAVLSFHNICYRVKLKSGFLPCRKPVEKEILSNINGIMKPGLNAILGPTGGGKSSLLDVLAARKDPSGLSGDVLINGAPRPANFKCNSGYVVQDDVVMGTLTVRENLQFSAALRLATTMTNHEKNERINRVIQELGLDKVADSKVGTQFIRGVSGGERKRTSIGMELITDPSILFLDEPTTGLDSSTANAVLLLLKRMSKQGRTIIFSIHQPRYSIFKLFDSLTLLASGRLMFHGPAQEALGYFESAGYHCEAYNNPADFFLDIINGDSTAVALNREEDFKATEIIEPSKQDKPLIEKLAEIYVNSSFYKETKAELHQLSGGEKKKKITVFKEISYTTSFCHQLRWVSKRSFKNLLGNPQASIAQIIVTVVLGLVIGAIYFGLKNDSTGIQNRAGVLFFLTTNQCFSSVSAVELFVVEKKLFIHEYISGYYRVSSYFLGKLLSDLLPMRMLPSIIFTCIVYFMLGLKPKADAFFVMMFTLMMVAYSASSMALAIAAGQSVVSVATLLMTICFVFMMIFSGLLVNLTTIASWLSWLQYFSIPRYGFTALQHNEFLGQNFCPGLNATGNNPCNYATCTGEEYLVKQGIDLSPWGLWKNHVALACMIVIFLTIAYLKLLFLKKYS

- Kd [14]: 3.12 nM
- Kd [15]: 7.5 nM
- Kd [16]: 81 nM
B3: ABCG2 (other)
chain: MSSSNVEVFIPVSQGNTNGFPATASNDLKAFTEGAVLSFHNICYRVKLKSGFLPCRKPVEKEILSNINGIMKPGLNAILGPTGGGKSSLLDVLAARKDPSGLSGDVLINGAPRPANFKCNSGYVVQDDVVMGTLTVRENLQFSAALRLATTMTNHEKNERINRVIQELGLDKVADSKVGTQFIRGVSGGERKRTSIGMELITDPSILFLDEPTTGLDSSTANAVLLLLKRMSKQGRTIIFSIHQPRYSIFKLFDSLTLLASGRLMFHGPAQEALGYFESAGYHCEAYNNPADFFLDIINGDSTAVALNREEDFKATEIIEPSKQDKPLIEKLAEIYVNSSFYKETKAELHQLSGGEKKKKITVFKEISYTTSFCHQLRWVSKRSFKNLLGNPQASIAQIIVTVVLGLVIGAIYFGLKNDSTGIQNRAGVLFFLTTNQCFSSVSAVELFVVEKKLFIHEYISGYYRVSSYFLGKLLSDLLPMRMLPSIIFTCIVYFMLGLKPKADAFFVMMFTLMMVAYSASSMALAIAAGQSVVSVATLLMTICFVFMMIFSGLLVNLTTIASWLSWLQYFSIPRYGFTALQHNEFLGQNFCPGLNATGNNPCNYATCTGEEYLVKQGIDLSPWGLWKNHVALACMIVIFLTIAYLKLLFLKKYS
